Stoichiometry N data for one substance are collected here from paper PMC6211762.

This experiment concerns the target Macrobrachium rosenbergii nodavirus (MrNV) capsid protein, recombinant, assembled into virus-like particles (Macrobrachium rosenbergii nodavirus). The experiment in a line: cryo-EM structure; MrNV VLPs at approximately 0.2 mg/ml, vitrified on thin continuous carbon films; Titan Krios; icosahedral reconstruction at 3.3 Å from 40,883 particles; atomic model of the asymmetric unit.

What is called stoichiometry N is the number of molecules, sites or subunits per partner or assembly. Turning to “Macrobrachium rosenbergii nodavirus (MrNV) capsid protein, recombinant, assembled into virus-like particles (natural protein)”, the stoichiometry N was found to be 180.
